Data as given in patent publication EP2123670B1.

Legend:
Conditions in all cases: remark: other sources report otherwise
[1] = target: T1, factor XIIa, P00748; experiment: SPR (BIAcore X), Ir-CPI immobilised at about 200 RU, factor injected at 5-300 nM; two-state model, kd1 (first step)
T1 chain: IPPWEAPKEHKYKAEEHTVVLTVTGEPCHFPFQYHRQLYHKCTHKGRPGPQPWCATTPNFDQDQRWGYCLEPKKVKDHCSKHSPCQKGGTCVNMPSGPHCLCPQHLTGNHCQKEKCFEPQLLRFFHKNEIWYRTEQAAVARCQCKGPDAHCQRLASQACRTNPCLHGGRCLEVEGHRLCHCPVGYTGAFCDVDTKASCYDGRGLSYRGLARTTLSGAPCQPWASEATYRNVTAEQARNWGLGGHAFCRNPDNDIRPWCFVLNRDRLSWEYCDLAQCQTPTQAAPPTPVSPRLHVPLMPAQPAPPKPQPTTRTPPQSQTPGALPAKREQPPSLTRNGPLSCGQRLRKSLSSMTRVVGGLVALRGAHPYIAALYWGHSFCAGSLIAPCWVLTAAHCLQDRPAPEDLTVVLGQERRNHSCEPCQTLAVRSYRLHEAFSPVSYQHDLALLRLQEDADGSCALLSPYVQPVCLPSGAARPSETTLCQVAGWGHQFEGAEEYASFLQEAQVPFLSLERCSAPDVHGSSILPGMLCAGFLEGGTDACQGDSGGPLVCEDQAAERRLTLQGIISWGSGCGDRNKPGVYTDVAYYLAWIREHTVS

[2] = target: T1, factor XIIa, P00748; experiment: SPR, Ir-CPI immobilised; two-state model, forward rate of the conformation change
[3] = target: T1, factor XIIa, P00748; experiment: SPR, Ir-CPI immobilised; two-state model, backward rate of the conformation change
[4] = target: T1, factor XIIa, P00748; experiment: SPR (BIAcore X), Ir-CPI immobilised at about 200 RU, factor injected at 5-300 nM; two-state model, ka1 (first step)
[5] = target: T1, factor XIIa, P00748; experiment: SPR, Ir-CPI immobilised; two-state model, global equilibrium constant K = ka1ka2/kd1kd2

B1: Ir-CPI, Q9GP15 20-86 (protein)
chain: ANHKGRGRPAKCKLPPDDGPCRARIPSYYFDRKTKTCKEFMYGGCEGNENNFENITTCQEECRAKKV
With B1 the koff [1] was 0.0946 s⁻¹, the ka2 [2] was 0.655 s⁻¹ and the kd2 [3] was 0.105 s⁻¹. The kon [4] was 219000 M⁻¹ s⁻¹ and the Ka [5] was 1.68e+08 M⁻¹.
